Laboratory results published in patent US20200165325A1.

How the values were obtained:
[1] = target: HIV-1 Env of strain 0330.v4.c3 (HIV-1)
[2] = target: HIV-1 Env of strain 1006_11_C3_1601 (HIV-1)
[3] = target: HIV-1 Env of strain 1056_10_TA11_1826 (HIV-1)
[4] = target: HIV-1 Env of strain 211-9 (HIV-1)
[5] = target: HIV-1 Env of strain 231965.c01 (HIV-1)
[6] = target: HIV-1 Env of strain 3016.v5.c45 (HIV-1)
[7] = target: HIV-1 Env of strain 3103.v3.c10 (HIV-1)
[8] = target: HIV-1 Env of strain 3301.v1.c24 (HIV-1)
[9] = target: HIV-1 Env of strain 3718.v3.c11 (HIV-1)
[10] = target: HIV-1 Env of strain 3817.v2.c59 (HIV-1)
[11] = target: HIV-1 Env of strain 62357_14_D3_4589 (HIV-1)
[12] = target: HIV-1 Env of strain 6480.v4.c25 (HIV-1)
[13] = target: HIV-1 Env of strain 6545.v4.c1 (HIV-1)
[14] = target: HIV-1 Env of strain 703357.C02 (HIV-1)
[15] = target: HIV-1 Env of strain 89-F1_2_25 (HIV-1)
[16] = target: HIV-1 Env of strain 928-28 (HIV-1)
[17] = target: HIV-1 Env of strain C1080.c03 (HIV-1)
[18] = target: HIV-1 Env of strain C2101.c01 (HIV-1)
[19] = target: HIV-1 Env of strain C3347.c11 (HIV-1)
[20] = target: HIV-1 Env of strain CAP210.2.00.E8 (HIV-1)
[21] = target: HIV-1 Env of strain CAP45.2.00.G3 (HIV-1)
[22] = target: HIV-1 Env of strain CNE21 (HIV-1)
[23] = target: HIV-1 Env of strain CNE30 (HIV-1)
[24] = target: HIV-1 Env of strain CNE53 (HIV-1)
[25] = target: HIV-1 Env of strain CNE58 (HIV-1)
[26] = target: HIV-1 Env of strain Ce0393_C3 (HIV-1)
[27] = target: HIV-1 Env of strain Ce0682_E4 (HIV-1)
[28] = target: HIV-1 Env of strain Ce1176_A3 (HIV-1)
[29] = target: HIV-1 Env of strain Ce2010_F5 (HIV-1)
[30] = target: HIV-1 Env of strain Ce2060_G9 (HIV-1)
[31] = target: HIV-1 Env of strain Du156.12 (HIV-1)
[32] = target: HIV-1 Env of strain Du172.17 (HIV-1)
[33] = target: HIV-1 Env of strain HIV-16845-2.22 (HIV-1)
[34] = target: HIV-1 Env of strain P1981_C5_3 (HIV-1)
[35] = target: HIV-1 Env of strain PVO.4 (HIV-1)
[36] = target: HIV-1 Env of strain Q23.17 (HIV-1)
[37] = target: HIV-1 Env of strain Q769.d22 (HIV-1)
[38] = target: HIV-1 Env of strain Q842.d12 (HIV-1)
[39] = target: HIV-1 Env of strain QH0692.42 (HIV-1)
[40] = target: HIV-1 Env of strain RHPA4259.7 (HIV-1)
[41] = target: HIV-1 Env of strain SC422661.8 (HIV-1)
[42] = target: HIV-1 Env of strain T250-4 (HIV-1)
[43] = target: HIV-1 Env of strain T251-18 (HIV-1)
[44] = target: HIV-1 Env of strain T255-34 (HIV-1)
[45] = target: HIV-1 Env of strain T257-31 (HIV-1)
[46] = target: HIV-1 Env of strain T278-50 (HIV-1)
[47] = target: HIV-1 Env of strain THRO4156.18 (HIV-1)
[48] = target: HIV-1 Env of strain TRJO4551.58 (HIV-1)
[49] = target: HIV-1 Env of strain TRO.11 (HIV-1)
[50] = target: HIV-1 Env of strain WEAU_d15_410_787 (HIV-1)
[51] = target: HIV-1 Env of strain WITO4160.33 (HIV-1)
[52] = target: HIV-1 Env of strain X1193_c1 (HIV-1)
[53] = target: HIV-1 Env of strain X1254_c3 (HIV-1)
[54] = target: HIV-1 Env of strain ZM214M.PL15 (HIV-1)
[55] = target: HIV-1 Env of strain ZM233M.PB6 (HIV-1)
[56] = target: HIV-1 Env of strain ZM249M.PL1 (HIV-1)
[57] = target: HIV-1 Env of strain ZM53M.PB12 (HIV-1)

NIH45-46 G54F IgG (antibody)
In vitro neutralization IC80 [1]: 0.13 µg/mL | In vitro neutralization IC80 [2]: 0.024 µg/mL | In vitro neutralization IC80 [3]: 0.283 µg/mL | In vitro neutralization IC80 [4]: > 50 µg/mL | In vitro neutralization IC80 [5]: 0.062 µg/mL | In vitro neutralization IC80 [6]: 37 µg/mL | In vitro neutralization IC80 [7]: 1.28 µg/mL | In vitro neutralization IC80 [8]: 0.011 µg/mL | In vitro neutralization IC80 [9]: 4.62 µg/mL | In vitro neutralization IC80 [10]: > 50 µg/mL | In vitro neutralization IC80 [11]: 0.14 µg/mL | In vitro neutralization IC80 [12]: 0.046 µg/mL | In vitro neutralization IC80 [13]: > 50 µg/mL | In vitro neutralization IC80 [14]: > 50 µg/mL | In vitro neutralization IC80 [15]: > 50 µg/mL | In vitro neutralization IC80 [16]: 0.41 µg/mL | In vitro neutralization IC80 [17]: 2.26 µg/mL | In vitro neutralization IC80 [18]: 0.42 µg/mL | In vitro neutralization IC80 [19]: 0.059 µg/mL | In vitro neutralization IC80 [20]: > 50 µg/mL | In vitro neutralization IC80 [21]: > 50 µg/mL | In vitro neutralization IC80 [22]: 0.66 µg/mL | In vitro neutralization IC80 [23]: 0.348 µg/mL | In vitro neutralization IC80 [24]: 0.024 µg/mL | In vitro neutralization IC80 [25]: 0.11 µg/mL | In vitro neutralization IC80 [26]: 0.173 µg/mL | In vitro neutralization IC80 [27]: 0.056 µg/mL | In vitro neutralization IC80 [28]: 0.83 µg/mL | In vitro neutralization IC80 [29]: 0.186 µg/mL | In vitro neutralization IC80 [30]: 0.085 µg/mL | In vitro neutralization IC80 [31]: 0.019 µg/mL | In vitro neutralization IC80 [32]: > 50 µg/mL | In vitro neutralization IC80 [33]: 2.75 µg/mL | In vitro neutralization IC80 [34]: 0.11 µg/mL | In vitro neutralization IC80 [35]: 0.25 µg/mL | In vitro neutralization IC80 [36]: 0.07 µg/mL | In vitro neutralization IC80 [37]: 0.023 µg/mL | In vitro neutralization IC80 [38]: 0.039 µg/mL | In vitro neutralization IC80 [39]: 1.65 µg/mL | In vitro neutralization IC80 [40]: 0.02 µg/mL | In vitro neutralization IC80 [41]: 0.1 µg/mL | In vitro neutralization IC80 [42]: > 50 µg/mL | In vitro neutralization IC80 [43]: 1.38 µg/mL | In vitro neutralization IC80 [44]: 0.198 µg/mL | In vitro neutralization IC80 [45]: 0.51 µg/mL | In vitro neutralization IC80 [46]: > 50 µg/mL | In vitro neutralization IC80 [47]: 3.01 µg/mL | In vitro neutralization IC80 [48]: 0.08 µg/mL | In vitro neutralization IC80 [49]: 0.3 µg/mL | In vitro neutralization IC80 [50]: 0.004 µg/mL | In vitro neutralization IC80 [51]: 0.14 µg/mL | In vitro neutralization IC80 [52]: 0.026 µg/mL | In vitro neutralization IC80 [53]: 0.043 µg/mL | In vitro neutralization IC80 [54]: 0.3 µg/mL | In vitro neutralization IC80 [55]: 0.99 µg/mL | In vitro neutralization IC80 [56]: 0.016 µg/mL | In vitro neutralization IC80 [57]: 0.23 µg/mL

NIH45-46 G54W IgG (antibody)
In vitro neutralization IC80 [1]: 0.11 µg/mL | In vitro neutralization IC80 [2]: 0.008 µg/mL | In vitro neutralization IC80 [3]: 0.16 µg/mL | In vitro neutralization IC80 [4]: > 50 µg/mL | In vitro neutralization IC80 [5]: 0.035 µg/mL | In vitro neutralization IC80 [6]: 15.4 µg/mL | In vitro neutralization IC80 [7]: 0.56 µg/mL | In vitro neutralization IC80 [8]: 0.004 µg/mL | In vitro neutralization IC80 [9]: 0.04 µg/mL | In vitro neutralization IC80 [10]: > 50 µg/mL | In vitro neutralization IC80 [11]: 0.07 µg/mL | In vitro neutralization IC80 [12]: 0.021 µg/mL | In vitro neutralization IC80 [13]: > 50 µg/mL | In vitro neutralization IC80 [14]: 17.6 µg/mL | In vitro neutralization IC80 [15]: > 50 µg/mL | In vitro neutralization IC80 [16]: 0.25 µg/mL | In vitro neutralization IC80 [17]: 0.91 µg/mL | In vitro neutralization IC80 [18]: 0.17 µg/mL | In vitro neutralization IC80 [19]: 0.028 µg/mL | In vitro neutralization IC80 [20]: > 50 µg/mL | In vitro neutralization IC80 [21]: > 50 µg/mL | In vitro neutralization IC80 [22]: 0.16 µg/mL | In vitro neutralization IC80 [23]: 0.196 µg/mL | In vitro neutralization IC80 [24]: 0.005 µg/mL | In vitro neutralization IC80 [25]: 0.05 µg/mL | In vitro neutralization IC80 [26]: 0.089 µg/mL | In vitro neutralization IC80 [27]: 0.039 µg/mL | In vitro neutralization IC80 [28]: 0.45 µg/mL | In vitro neutralization IC80 [29]: 0.187 µg/mL | In vitro neutralization IC80 [30]: 0.042 µg/mL | In vitro neutralization IC80 [31]: 0.005 µg/mL | In vitro neutralization IC80 [32]: 42.9 µg/mL | In vitro neutralization IC80 [33]: 2.1 µg/mL | In vitro neutralization IC80 [34]: 0.07 µg/mL | In vitro neutralization IC80 [35]: 0.16 µg/mL | In vitro neutralization IC80 [36]: 0.03 µg/mL | In vitro neutralization IC80 [37]: 0.009 µg/mL | In vitro neutralization IC80 [38]: 0.025 µg/mL | In vitro neutralization IC80 [39]: 1.12 µg/mL | In vitro neutralization IC80 [40]: 0.007 µg/mL | In vitro neutralization IC80 [41]: 0.07 µg/mL | In vitro neutralization IC80 [42]: 44.9 µg/mL | In vitro neutralization IC80 [43]: 0.92 µg/mL | In vitro neutralization IC80 [44]: 0.099 µg/mL | In vitro neutralization IC80 [45]: 0.45 µg/mL | In vitro neutralization IC80 [46]: > 50 µg/mL | In vitro neutralization IC80 [47]: 1.81 µg/mL | In vitro neutralization IC80 [48]: 0.05 µg/mL | In vitro neutralization IC80 [49]: 0.13 µg/mL | In vitro neutralization IC80 [50]: 0.003 µg/mL | In vitro neutralization IC80 [51]: 0.04 µg/mL | In vitro neutralization IC80 [52]: 0.009 µg/mL | In vitro neutralization IC80 [53]: 0.018 µg/mL | In vitro neutralization IC80 [54]: 0.15 µg/mL | In vitro neutralization IC80 [55]: 0.11 µg/mL | In vitro neutralization IC80 [56]: 0.007 µg/mL | In vitro neutralization IC80 [57]: 0.16 µg/mL
